Results as given in the RNAGym collection of RNA variant scans (doi:10.1073/pnas.2313332121).

B1: TPR t1 (parent)
chain: GACCAAUCUGCCCUCAGAGCUCGAGAACAUCUUCGGAUGCAGAGGAGGCAGGCUUCGGUGGCGCGAUAGCGCCAACGUCCUCAACCUCCAAUGCAUCCCACCACAUGAUGAUGCCUGAAGAGCCUUGGUUUUUUG

Variants of: B1
Assay: polymerase ribozyme fitness, log enrichment relative to wild type (log ratio); higher = more active; in vitro selection for triplet polymerase activity
Method in brief: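 A heterodimeric triplet polymerase ribozyme had each of its subunits mutagenized by PCR into a library, which was transcribed. One round of in vitro selection, done in triplicate, annealed each library with a biotinylated primer, its partner subunit and triplets, then incubated it frozen at −7 °C before gel excision of extended constructs, streptavidin-bead capture and RT-PCR. Fitness is the logarithm of genotype enrichment relative to wild-type enrichment, based on Illumina sequencing of inputs and outputs and inverse-variance-weighted replicate averages. A base-2 logarithm is used, and genotypes were kept only with ≥10 input reads and ≥1 read per output.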

First: C73G U133A
Second: C73U A83C
The “polymerase ribozyme fitness (log ratio)” value of the first is higher: -1.27 for the first, -2.2 for the second.

Going from C73U A83U C104A G110U to C73U A84G A90U A103G U109A C124A, the “polymerase ribozyme fitness (log ratio)” value falls from -4.18 to -4.51.

Going from C73U A84U to C73U A90G A121C, the “polymerase ribozyme fitness (log ratio)” value rises from -0.363 to 2.05.

Going from C73U A91G C104U U112A G113U to C73U A91U U96A U112A G120U, the “polymerase ribozyme fitness (log ratio)” value falls from -0.254 to -3.6.

Compared with C73U A95U A111U, C73U A100U is higher in “polymerase ribozyme fitness (log ratio)” value: -2.76 for the first, -0.959 for the second.

C73U A103C and C73U A105C A119U G128A are within 0.2 log units of each other in “polymerase ribozyme fitness (log ratio)” value: -3.82 for the first, -3.98 for the second.

Going from C73U A119U U126C to C73U A121U U133A, the “polymerase ribozyme fitness (log ratio)” value rises from -0.929 to 2.19.

First: C73U C76U C97U U112A U129A
Second: C73U C79G
The “polymerase ribozyme fitness (log ratio)” value of the first is higher: -1.35 for the first, -2.02 for the second.

Compared with C73U C79G A84G U96C, C73U C80U G135C is higher in “polymerase ribozyme fitness (log ratio)” value: -2.54 for the first, -0.322 for the second.

Going from C73U C82A C124G to C73U C85U U116G, the “polymerase ribozyme fitness (log ratio)” value falls from 1.47 to -3.31.

Compared with C73U C86U U109C G117A G135U, C73U C88U U92G is higher in “polymerase ribozyme fitness (log ratio)” value: -6.47 for the first, -2.64 for the second.

Compared with C73U C97A U106C, C73U C104U is higher in “polymerase ribozyme fitness (log ratio)” value: -5.37 for the first, 0.0551 for the second.

Going from C73U C114G to C73U C114U C123A, the “polymerase ribozyme fitness (log ratio)” value falls from -1.76 to -3.41.

Going from C73U C115G to C73U C124G, the “polymerase ribozyme fitness (log ratio)” value rises from -1.77 to 0.939.

Going from C73U G110C to C73U G110U, the “polymerase ribozyme fitness (log ratio)” value rises from -3.31 to -1.17.

Compared with C73U G110U G120A, C73U G117A is higher in “polymerase ribozyme fitness (log ratio)” value: -2.15 for the first, 0.149 for the second.

Compared with C73U G117A G120U, C73U G122A is higher in “polymerase ribozyme fitness (log ratio)” value: -2.36 for the first, -0.427 for the second.

Compared with C73U U78C U96A, C73U U81A C98A G113A G117U U131G is lower in “polymerase ribozyme fitness (log ratio)” value: -1.03 for the first, -5.03 for the second.

Going from C73U U81G C82G C123A to C73U U92C, the “polymerase ribozyme fitness (log ratio)” value falls from 0.626 to -1.83.

Going from C73U U112A to C73U U116C, the “polymerase ribozyme fitness (log ratio)” value falls from 1.41 to -0.498.

Going from C73U U133A to A74C A105C, the “polymerase ribozyme fitness (log ratio)” value falls from 0.4 to -2.34.

First: A74C C79A U125A
Second: A74C C79A U131G
The “polymerase ribozyme fitness (log ratio)” value of the first is lower: -1.75 for the first, -0.848 for the second.

Compared with A74C C82U A95C, A74C U96A G117C is lower in “polymerase ribozyme fitness (log ratio)” value: -0.152 for the first, -5.37 for the second.

Going from A74C U106A G120U C124G to A74C U109A, the “polymerase ribozyme fitness (log ratio)” value falls from 1.17 to -5.88.

Compared with A74C U133A, A74G A83U U106C is lower in “polymerase ribozyme fitness (log ratio)” value: -0.0752 for the first, -0.743 for the second.

Compared with A74G C80A C82U A118U, A74G C80U is higher in “polymerase ribozyme fitness (log ratio)” value: -2.93 for the first, -1.69 for the second.

First: A74G G113A
Second: A74G G120A
The “polymerase ribozyme fitness (log ratio)” value of the first is lower: -1.8 for the first, 1.08 for the second.

Going from A74G G120U G135C to A74G U106A U125A, the “polymerase ribozyme fitness (log ratio)” value falls from 0.597 to -0.353.

Compared with A74G U109G, A74G U112A U126A is higher in “polymerase ribozyme fitness (log ratio)” value: -4.6 for the first, 0.303 for the second.

Going from A74G U112G U116A to A74U C80U C82G, the “polymerase ribozyme fitness (log ratio)” value rises from -1.07 to -0.403.

Going from A74U C88G A118U to A74U C102U, the “polymerase ribozyme fitness (log ratio)” value falls from -1.31 to -2.82.

Going from A74U G110A to A74U G113A U129A, the “polymerase ribozyme fitness (log ratio)” value falls from -1.3 to -1.94.

Compared with A74U G120U, A74U U78A C85U C114U is lower in “polymerase ribozyme fitness (log ratio)” value: -0.788 for the first, -4.72 for the second.

Going from A74U U78C G120C to A74U U78G U131G, the “polymerase ribozyme fitness (log ratio)” value falls from 0.366 to -1.29.

Compared with A74U U87A C102U C104A, A74U U112A G128A is higher in “polymerase ribozyme fitness (log ratio)” value: -2.53 for the first, -1.59 for the second.

Going from A75G C94G to A75G C97U U131A, the “polymerase ribozyme fitness (log ratio)” value rises from -1.19 to -0.00214.

Going from A75G U112A to A75G U129A, the “polymerase ribozyme fitness (log ratio)” value falls from 1.59 to -0.79.

Compared with A75U A111C, A75U C76G C88G C89U A90G is lower in “polymerase ribozyme fitness (log ratio)” value: 0.255 for the first, -2.47 for the second.

First: A75U C76U
Second: A75U U81A G113C U130C
The “polymerase ribozyme fitness (log ratio)” value of the first is higher: -1.57 for the first, -3.89 for the second.

Compared with C76A C82G C88U G110C, C76A C89A is higher in “polymerase ribozyme fitness (log ratio)” value: -5.82 for the first, -3.18 for the second.

Compared with C76A G110A C115A, C76A G113C is lower in “polymerase ribozyme fitness (log ratio)” value: -2.95 for the first, -3.53 for the second.

Going from C76A G120U to C76A U78A A118U, the “polymerase ribozyme fitness (log ratio)” value rises from -0.741 to 0.066.

Compared with C76A U78A U96A, C76G A84U U133G is higher in “polymerase ribozyme fitness (log ratio)” value: -1.43 for the first, -0.998 for the second.

Going from C76G A90C to C76G C98A, the “polymerase ribozyme fitness (log ratio)” value falls from -0.998 to -4.09.

Compared with C76G C99A U112A, C76G C102U C104A is higher in “polymerase ribozyme fitness (log ratio)” value: -4.02 for the first, -1.03 for the second.

First: C76G G77U
Second: C76U A111U
The “polymerase ribozyme fitness (log ratio)” value of the first is higher: 0.0405 for the first, -3.86 for the second.

Going from C76U C82A C88U to C76U C82U C102U G117A, the “polymerase ribozyme fitness (log ratio)” value falls from -1.25 to -4.4.

Going from C76U C86U A91U to C76U C88A, the “polymerase ribozyme fitness (log ratio)” value rises from -3.49 to -1.29.

Going from C76U C104A to C76U G117C, the “polymerase ribozyme fitness (log ratio)” value falls from -1.92 to -3.98.

First: C76U G127A
Second: C76U G135U
The “polymerase ribozyme fitness (log ratio)” value of the first is lower: -1.52 for the first, -1.08 for the second.

Going from C76U U125A to G77A A84U U112G, the “polymerase ribozyme fitness (log ratio)” value falls from -0.353 to -2.45.

Compared with G77A A90G, G77A A91G is lower in “polymerase ribozyme fitness (log ratio)” value: -0.174 for the first, -1.01 for the second.

Going from G77A A95G G120A to G77A A111C A119U C123A U131C, the “polymerase ribozyme fitness (log ratio)” value falls from 0.0766 to -2.38.

First: G77A C80U C98A C123G
Second: G77A C85A
The “polymerase ribozyme fitness (log ratio)” value of the first is lower: -4.14 for the first, -2.93 for the second.

Going from G77A C94G to G77A C98U U126C U130C, the “polymerase ribozyme fitness (log ratio)” value falls from -1.19 to -1.62.

Going from G77A G93A C124A to G77A G120U, the “polymerase ribozyme fitness (log ratio)” value falls from 1.34 to -0.0426.

Going from G77A U81A G128A to G77A U87A A111U G122U, the “polymerase ribozyme fitness (log ratio)” value falls from -2.44 to -4.12.

Compared with G77A U131A, G77C A83C C85U U109C C114G is lower in “polymerase ribozyme fitness (log ratio)” value: 0.113 for the first, -6.69 for the second.

Compared with G77C C85A, G77C C86A G117A is lower in “polymerase ribozyme fitness (log ratio)” value: -1.93 for the first, -3.88 for the second.

Going from G77C C86G to G77C C89U G128C, the “polymerase ribozyme fitness (log ratio)” value falls from -1.47 to -3.81.

First: G77C G110U
Second: G77C G117U
The “polymerase ribozyme fitness (log ratio)” value of the first is higher: -1.93 for the first, -2.55 for the second.

First: G77C G122A U130A
Second: G77C U92C G122A
The “polymerase ribozyme fitness (log ratio)” value of the first is higher: -1.41 for the first, -2.81 for the second.

Going from G77C U96A to G77C U125A, the “polymerase ribozyme fitness (log ratio)” value rises from -1.58 to -0.685.

First: G77C U129A
Second: G77U C82U
The “polymerase ribozyme fitness (log ratio)” value of the first is lower: -1.42 for the first, -0.811 for the second.

Going from G77U C82U G107A U112C to G77U C94U C102A C115A, the “polymerase ribozyme fitness (log ratio)” value rises from -5.86 to -2.01.

Compared with G77U C101G, G77U G122A U130G is higher in “polymerase ribozyme fitness (log ratio)” value: -1.96 for the first, -0.666 for the second.

First: G77U U78C U87G A121U U130G
Second: U78A A95C G113U U125G
The “polymerase ribozyme fitness (log ratio)” value of the first is higher: 2.02 for the first, -4.39 for the second.

First: U78A A95G
Second: U78A C88G C98U G135A
The “polymerase ribozyme fitness (log ratio)” value of the first is higher: -0.764 for the first, -2.63 for the second.

Compared with U78A C97A, U78A C114G is higher in “polymerase ribozyme fitness (log ratio)” value: -4.8 for the first, -2.43 for the second.

Compared with U78A C115U, U78A C123A is higher in “polymerase ribozyme fitness (log ratio)” value: -1.41 for the first, 0.278 for the second.

Compared with U78A G113C, U78A G117A G128C is lower in “polymerase ribozyme fitness (log ratio)” value: -2.57 for the first, -5.04 for the second.

Going from U78A G117C A121C to U78A U87G, the “polymerase ribozyme fitness (log ratio)” value rises from -5.24 to -0.804.

Going from U78A U96C to U78C A83C, the “polymerase ribozyme fitness (log ratio)” value rises from -0.338 to 0.0151.

Compared with U78C A83C C94U G110A A118U G120U U132C, U78C A83C C102U is higher in “polymerase ribozyme fitness (log ratio)” value: -2.85 for the first, -1.78 for the second.

U78C A83U C115A and U78C A84C are within 0.2 log units of each other in “polymerase ribozyme fitness (log ratio)” value: -0.234 for the first, -0.194 for the second.

Going from U78C A84G C97G to U78C A95G, the “polymerase ribozyme fitness (log ratio)” value rises from -5.87 to -1.08.

First: U78C A111G C124A
Second: U78C A111U
The “polymerase ribozyme fitness (log ratio)” value of the first is higher: 1.04 for the first, -2.5 for the second.

Going from U78C C80U to U78C C80U C89U G117C A119G, the “polymerase ribozyme fitness (log ratio)” value falls from -0.608 to -1.72.

First: U78C C82A C85U G93A
Second: U78C C85G C124A
The “polymerase ribozyme fitness (log ratio)” value of the first is lower: -1.53 for the first, -0.513 for the second.

Going from U78C C88U C123G U125A to U78C C94G A95G A118U, the “polymerase ribozyme fitness (log ratio)” value falls from 1.82 to -0.801.

Going from U78C C97A to U78C C102U, the “polymerase ribozyme fitness (log ratio)” value rises from -4.81 to -2.14.

Compared with U78C C123A, U78C G93A U112C G128U is lower in “polymerase ribozyme fitness (log ratio)” value: 0.196 for the first, -1.32 for the second.

Compared with U78C G110C, U78C G113A A118G U134G G135U is higher in “polymerase ribozyme fitness (log ratio)” value: -3.67 for the first, -1.82 for the second.

For U78C G117U G128C G135C, the “polymerase ribozyme fitness (log ratio)” value was -6.04.
